Tests used:
Asp44 = Asp44 (UniProt position 45, RNAKPDIKEDI); assay: NMR
Glu64 = Glu64 (UniProt position 65, PVYEFEGTSVE); assay: NMR
Glu50 = Glu50 (UniProt position 51, IKEDIEYYAKL); assay: NMR
Glu100 = Glu100 (UniProt position 101, ALGGKE-----); assay: NMR
Glu47 = Glu47 (UniProt position 48, KPDIKEDIEYY); assay: NMR
Asp87 = Asp87 (UniProt position 88, ALAVVDPGESR); assay: NMR
Glu69 = Glu69 (UniProt position 70, EGTSVELGTLL); assay: NMR
Glu6 = Glu6 (UniProt position 7, VDFAFELKKAQ); assay: NMR
Asp12 = Asp12 (UniProt position 13, LKKAQDTGKIV); assay: NMR
Asp48 = Asp48 (UniProt position 49, PDIKEDIEYYA); assay: NMR
Glu90 = Glu90 (UniProt position 91, VVDPGESRILA); assay: NMR
Glu62 = Glu62 (UniProt position 63, GIPVYEFEGTS); assay: NMR
Asp2 = Asp2 (UniProt position 3, ---MVDFAFEL); assay: NMR
[1] = target: Asp3 (position 3, ---GGDGG---); assay: potentiometry
[2] = target: Glu3 (position 3, ---GGEGG---); assay: potentiometry
[3] = 298 K, 5.4 M guanidine-HCl, not stated for the denatured samples, unfolded (guanidine-denatured)
[4] = 298 K, low ionic strength, 10 mM sodium citrate/phosphate, no added salt stated, folded (native)
[5] = 333 K, 5.4 M guanidine-HCl, not stated for the denatured samples, unfolded (guanidine-denatured)
[6] = 333 K, low ionic strength, 10 mM sodium citrate/phosphate, no added salt stated, folded (native)
[7] = 298 K, 5.4 M guanidine hydrochloride, free peptide in 5.4 M GdnHCl
[8] = 298 K, no added salt (peptide in nano-pure water), free peptide, no denaturant
[9] = 333 K, 5.4 M guanidine hydrochloride, free peptide in 5.4 M GdnHCl
[10] = 333 K, no added salt (peptide in nano-pure water), free peptide, no denaturant

“50S ribosomal protein L30e, 5R->K variant (L30e*) (Thermococcus celer; R8K;R21K;R42K;R54K;R76K)” showed a pKa (Asp44; [3]) of 3.62±0.01, a pKa (Asp44; [4]) of 3.08±0.04 and a pKa (Asp44; [5]) of 3.52±0.02. For the same molecule, the pKa (Asp44; [6]) was 2.88±0.04, the pKa (Glu64; [3]) was 4.17±0.02 and the pKa (Glu64; [4]) was 4.10±0.06. It also gave a pKa (Glu64; [5]) of 4.00±0.02, a pKa (Glu64; [6]) of 4.06±0.07 and a pKa (Glu50; [3]) of 4.16±0.02. The pKa (Glu50; [4]) was 5.10±0.07, the pKa (Glu50; [5]) was 4.02±0.03 and the pKa (Glu50; [6]) was 5.00±0.06. It also gave a pKa (Glu100; [3]) of 4.19±0.02, a pKa (Glu100; [4]) of 4.31±0.03 and a pKa (Glu100; [5]) of 4.06±0.02. The pKa (Glu100; [6]) was 4.38±0.05, the pKa (Glu47; [3]) was 4.17±0.02 and the pKa (Glu47; [4]) was 4.53±0.04. For the same molecule, the pKa (Glu47; [5]) was 4.00±0.02, the pKa (Glu47; [6]) was 4.56±0.04 and the pKa (Asp87; [3]) was 3.54±0.02. It also gave a pKa (Asp87; [4]) of 2.50±0.02, a pKa (Asp87; [5]) of 3.47±0.02 and a pKa (Asp87; [6]) of 2.49±0.03. The pKa (Glu69; [3]) was 4.19±0.02, the pKa (Glu69; [4]) was 3.79±0.03 and the pKa (Glu69; [5]) was 4.01±0.03. It also gave a pKa (Glu69; [6]) of 3.82±0.03, a pKa (Glu6; [3]) of 4.17±0.02 and a pKa (Glu6; [4]) of 2.34±0.03. For the same molecule, the pKa (Glu6; [5]) was 4.00±0.02, the pKa (Glu6; [6]) was 2.38±0.04 and the pKa (Asp12; [3]) was 3.56±0.02. The pKa (Asp12; [4]) was 3.69±0.02, the pKa (Asp12; [5]) was 3.46±0.02 and the pKa (Asp12; [6]) was 3.69±0.03. The pKa (Asp48; [3]) was 3.56±0.02, the pKa (Asp48; [4]) was 4.14±0.04 and the pKa (Asp48; [5]) was 3.46±0.02. The pKa (Asp48; [6]) was 4.24±0.04, the pKa (Glu90; [3]) was 4.16±0.02 and the pKa (Glu90; [4]) was 4.17±0.02. It also gave a pKa (Glu90; [5]) of 4.02±0.03, a pKa (Glu90; [6]) of 4.24±0.02 and a pKa (Glu62; [3]) of 4.19±0.02. The pKa (Glu62; [4]) was 3.20±0.06, the pKa (Glu62; [5]) was 4.03±0.02 and the pKa (Glu62; [6]) was 3.30±0.06. It also gave a pKa (Asp2; [3]) of 3.62±0.01, a pKa (Asp2; [4]) of 3.13±0.04 and a pKa (Asp2; [5]) of 3.53±0.02. The pKa (Asp2; [6]) was 3.09±0.05.

B1: Model pentapeptide Ac-GGDGG-NH2 (synthetic) (peptide)
chain: GGDGG
B1 was tested, and the pKa [1, 7] was 3.70±0.01, the pKa [1, 8] was 3.69±0.03 and the pKa [1, 9] was 3.64±0.02. For the same molecule, the pKa [1, 10] was 3.61±0.02.

B2: Model pentapeptide Ac-GGEGG-NH2 (synthetic) (peptide)
chain: GGEGG
For B2, the pKa [2, 7] was 4.18±0.04, the pKa [2, 8] was 4.17±0.03 and the pKa [2, 9] was 4.10±0.02. It also gave a pKa [2, 10] of 4.10±0.01.

Reference: publication PMC3261180
